The chains are these.
B1: Twister Ribozyme (parent)
chain: AACACUGCCAAUGCCGGUCCCAAGCCCGGAUAAAAGUGGAGGGGGCGG

This data set covers variants of B1. Kind of data set: self-cleavage, relative activity (ratio to wild type); higher = more cleavage; co-transcriptional.
As for U12A C19U, the self-cleavage came out at 0.882.
With U12A C19G the figure was 0.614; with C25U A35U, 0.764; with C3G G44U, 0.425.
Regarding G7C G41U, the self-cleavage turned out to be 0.0511.
The figure for A40U G41U is 0.145; for C25A G28A it is 0.166; for C15G A30C it is 0.0706.
The figure for G43U G44U is 0.398; for A30G G43C it is 0.225; for G16U A30U it is 1.08.
The figure for C26U G43A is 0.125.
Turning to U12C C20G, the self-cleavage worked out at 0.103.
As for U18G G48C, the self-cleavage was 0.111.
The figure for A2U U6C is 0.0754; for A11G G36A it is 0.458; for A4U A30C it is 0.0756.
For G24U C25A, the self-cleavage is 0.115.
With C8G U31C the figure was 0.497; with G17C G43C, 0.0789; with A4U G24U, 0.0752.
The figure for C9G C25U is 0.194; for C21G C27U it is 0.0651.
C3A C14A: the self-cleavage was 0.15.
The figure for G13A C21A is 0.0879; for C8G A33C it is 0.203.
With A1C A11C the figure was 0.145.
With C20A G48A the figure was 0.104; with C9G G24C, 0.0967; with C5G A10U, 0.69.
Regarding A2C G17C, the self-cleavage was 0.0357.
The figure for G36C G39C is 0.113; for G29U G38A it is 0.775.
The figure for C21G C25U is 0.0625.
As to G17U A33C, the self-cleavage is 0.199.
Consider A1C A35U, for which the self-cleavage was determined as 0.129.
With G7U G13A the figure was 0.0636.
With C14A G44U the figure was 0.883; with U18G C19A, 0.0794; with A10U C46U, 0.836.
Take C3A G43U: the self-cleavage is 0.0615.
With A10G G13A the figure was 1.09.
Regarding A33G U37G, the self-cleavage was determined as 0.601.
With A40C G45C the figure was 0.154; with G24U C26U, 0.122.
Regarding G7A A23U, the self-cleavage is 0.12.
On to C9A A22U, for which the self-cleavage came to 0.259.
A4C C25A: the self-cleavage was 0.0458.
Consider G42A G44C, for which the self-cleavage was found to be 0.178.
Turning to C8G G17C, the self-cleavage was 0.07.
The figure for A4C A33U is 0.152; for C15U G38C it is 0.801.
With C14G G38C the figure was 0.159; with C25A A35U, 0.135.
The figure for C9G C27G is 0.0899; for C8G G29C it is 0.077.
A40U G45A: the self-cleavage came to 0.192.
With A23C G44U the figure was 0.195; with A11U G13A, 0.95.
Take C19U C26G: the self-cleavage amounted to 0.0861.
With A2U A4C the figure was 0.0829; with A10U C15U, 0.911.
With G42U G48A the figure was 0.25; with A34G G47A, 0.477.
With C3A G38U the figure was 0.191; with G44C G48U, 0.225; with G29A A30U, 0.709.
With C3U U6G, the self-cleavage is 0.106.
Regarding C3G A23C, the self-cleavage was determined as 0.137.
With U12A G36U the figure was 0.794; with A11U A22U, 0.908; with A11C C20U, 0.91.
Consider C8G G38U, for which the self-cleavage is 0.158.
The figure for A35C G48U is 0.978; for A2G G16U it is 0.301.
With A1U G41U the figure was 0.0585; with A34C G45C, 0.0937.
As for C3U C26A, the self-cleavage came out at 0.148.
With C8A A34C the figure was 0.189.
With A30G C46A the figure was 0.763.
With C27U G45C, the self-cleavage worked out at 0.354.
With A2U U18C the figure was 0.147.
The figure for C14A U37C is 0.619.
The figure for A35G G43U is 0.13.
G29U G41U: the self-cleavage amounted to 0.521.
The figure for C19U G45U is 0.563; for G44A G45C it is 0.535.
With G7U A23U the figure was 0.0674; with A10C G42C, 0.345; with A10G C20G, 0.183.
With G24A G44C the figure was 0.0736; with G7C G17U, 0.0545; with U6C C19G, 0.0653.
With C15A G48U, the self-cleavage was 0.573.
For the variant C25A A40G, the self-cleavage was 0.0786.
The figure for U6A C46A is 0.809; for A10C U37C it is 0.767; for G17U A40G it is 0.0578.
With U6G A35C the figure was 0.678; with G39C G43U, 0.112.
As for G38C G39C, the self-cleavage worked out at 0.127.
The figure for C9G G38C is 0.4.
In the case of C19U C20U, the self-cleavage is 0.327.
U12G C21U: the self-cleavage is 0.0878.
With G17C C20G the figure was 0.0846; with G7C C26A, 0.0601; with A34C U37C, 0.116.
With U6A G24C the figure was 0.399; with A1G G43C, 0.255; with A4U U18A, 0.0531.
The figure for A33G G38A is 0.709; for C9U G47C it is 0.235; for A23C C27A it is 0.0984.
On to A10G G17C, for which the self-cleavage is 0.217.
The figure for A10G G17A is 1.02; for G13A U18C it is 0.129; for A1G A30C it is 0.198.
The figure for C15U A35G is 0.659; for A10G A40C it is 0.46; for G42A G45U it is 0.153.
With C3G G48A the figure was 0.405; with G36A C46A, 0.582.
Consider A32U G41C, for which the self-cleavage turned out to be 0.284.
With C3A U31A the figure was 0.163; with U31G G36C, 0.712.
On to U18A C21U, for which the self-cleavage was found to be 0.0595.
The figure for A11C C14A is 0.69; for A11G G44U it is 0.876.
With A23G G43A, the self-cleavage was determined as 0.0981.
Regarding C5A U37A, the self-cleavage came to 0.547.
The figure for G24U G47U is 0.0704; for U31C G43U it is 0.537.
With A40G G45A the figure was 0.146; with G13U A40C, 0.129.
On to G24U U37G, for which the self-cleavage was 0.092.
On to C21G G24A, for which the self-cleavage is 0.0681.
The figure for C21G G24C is 0.109.
With G43A G47U the figure was 0.175; with A2C C27G, 0.0549.
With A1U C20G the figure was 0.112; with C19U A34G, 0.601.
Turning to C20A G43U, the self-cleavage was found to be 0.105.
Consider G24C G28C, for which the self-cleavage amounted to 0.135.
In the case of G13A G39A, the self-cleavage stood at 0.202.
With G45C, the self-cleavage was found to be 0.645.
The figure for U12C G44A is 0.852; for C21A G42U it is 0.0873.
The figure for C19A G48A is 0.161; for A2U G17U it is 0.0826.
With C5G C15G the figure was 0.0337; with A1C G45C, 0.176; with C25U G47C, 0.248.
For the variant C21G G42C, the self-cleavage came to 0.13.
With C25U G44A the figure was 0.811; with A1C G38A, 0.189; with C27G G48C, 0.147.
With C20G G44U the figure was 0.0685; with A1U G13A, 0.0679; with A1U G13U, 0.0563.
For the variant A4U G17U, the self-cleavage amounted to 0.0471.
With C19A G24C the figure was 0.0773; with G7C G44A, 0.0625; with C3G G28U, 0.253.
Take G24U G45C: the self-cleavage was determined as 0.0947.
The figure for C3A U37C is 0.193; for C21U G41C it is 0.434; for C27U A30G it is 0.777.

The values above are taken from the RNAGym collection of RNA variant scans (doi:10.7554/elife.80360).
